B1: Protein DOM34 (Saccharomyces cerevisiae), P33309 (parent)
chain: MKVISLKKDSFNKGGAVITLLPEDKEDLFTVYQIVDKDDELIFKKKFTSKLDEAGKKKSTDLVKLKIKVISEDFDMKDEYLKYKGVTVTDESGASNVDIPVGKYLSFTLDYVYPFTIIKQNFNKFMQKLLNEACNIEYKSDTAAVVLQEGIAHVCLVTSSSTILKQKIEYSMPKKKRTTDVLKFDEKTEKFYKAIYSAMKKDLNFDKLKTIILCSPGFYAKILMDKIFQYAEEEHNKKILDNKGMFFIAHCSTGYLQGINEVLKNPLYASKLQDTKYSKEIMVMDEFLLHLNKDDDKAWYGEKEVVKAAEYGAISYLLLTDKVLHSDNIAQREEYLKLMDSVESNGGKALVLSTLHSLGEELDQLTGIACILKYPLPDLDEDDGEE
partner: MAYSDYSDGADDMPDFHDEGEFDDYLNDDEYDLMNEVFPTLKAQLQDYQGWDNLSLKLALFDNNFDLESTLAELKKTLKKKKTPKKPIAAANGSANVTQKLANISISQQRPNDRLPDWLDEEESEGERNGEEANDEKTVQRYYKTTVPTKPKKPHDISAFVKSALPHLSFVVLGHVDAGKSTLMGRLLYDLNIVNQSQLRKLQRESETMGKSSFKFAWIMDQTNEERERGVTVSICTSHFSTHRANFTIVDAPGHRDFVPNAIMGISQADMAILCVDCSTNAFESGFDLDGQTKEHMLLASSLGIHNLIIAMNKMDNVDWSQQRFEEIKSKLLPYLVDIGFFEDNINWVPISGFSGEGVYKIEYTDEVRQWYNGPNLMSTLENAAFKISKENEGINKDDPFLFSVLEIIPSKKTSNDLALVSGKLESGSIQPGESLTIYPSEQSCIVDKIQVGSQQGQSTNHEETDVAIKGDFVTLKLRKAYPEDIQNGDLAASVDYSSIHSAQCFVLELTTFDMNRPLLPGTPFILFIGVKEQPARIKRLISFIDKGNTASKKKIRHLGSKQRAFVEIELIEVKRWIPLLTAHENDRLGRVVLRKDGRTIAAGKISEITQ
B2: Elongation factor 1 alpha-like protein (Saccharomyces cerevisiae), P32769 (parent)
chain: B1 partner
partner: B1 chain

Variants of: B1
Conditions: with hbs1_yeast HBS1, P32769

Effect of a mutation on the interaction, disrupting interaction:
MKVISLKKDSFNKGGAVITLLPEDKEDLFTVYQIVDKDDELIFKKKFTSKLDEAGKKKSTDLVKLKIKVISEDFDMKDEYLKYKGVTVTDESGASNVDIPVGKYLSFTLDYVYPFTIIKQNFNKFMQKLLNEACNIEYKSDTAAVVLQEGIAHVCLVTSSSTILKQKIEYSMPKKKRTTDVLKFDEKTEKFYKAIYSAMKKDLNFDKLKTIILCSPGFYAKILMDKIFQYAEEEHNKKILDNKGMFFIAHCSTGYLQGINEVLKNPLYASKLQDTKYSKEIMVMDEFLLHLNKDDDKAWAGEKEVVKAAEYGAISYLLLTDKVLHSDNIAQREEYLKLMDSVESNGGKALVLSTLHSLGEALDQLTGIACILKYPLPDLDEDDGEE [Y300A;E361A]
MKVISLKKDSFNKGGAVITLLPEDKEDLFTVYQIVDKDDELIFKKKFTSKLDEAGKKKSTDLVKLKIKVISEDFDMKDEYLKYKGVTVTDESGASNVDIPVGKYLSFTLDYVYPFTIIKQNFNKFMQKLLNEACNIEYKSDTAAVVLQEGIAHVCLVTSSSTILKQKIEYSMPKKKRTTDVLKFDEKTEKFYKAIYSAMKKDLNFDKLKTIILCSPGFYAKILMDKIFQYAEEEHNKKILDNKGMFFIAHCSTGYLQGINEVLKNPLYASKLQDTKYSKEIMVMDEFLLHLNKDDDKAWYGEKEVVKAAEYGAISYLLLTDKVLHSDNIAQREEYLKLMDSVESNGGKALVLSTLHSLGEALDALTGIACILKYPLPDLDEDDGEE [E361A;Q364A]
MKVISLKKDSFNKGGAVITLLPEDKEDLFTVYQIVDKDDELIFKKKFTSKLDEAGKKKSTDLVKLKIKVISEDFDMKDEYLKYKGVTVTDESGASNVDIPVGKYLSFTLDYVYPFTIIKQNFNKFMQKLLNEACNIEYKSDTAAVVLQEGIAHVCLVTSSSTILKQKIEYSMPAAAATTDVLKFDEKTEKFYKAIYSAMKKDLNFDKLKTIILCSPGFYAKILMDKIFQYAEEEHNKKILDNKGMFFIAHCSTGYLQGINEVLKNPLYASKLQDTKYSKEIMVMDEFLLHLNKDDDKAWYGEKEVVKAAEYGAISYLLLTDKVLHSDNIAQREEYLKLMDSVESNGGKALVLSTLHSLGEELDQLTGIACILKYPLPDLDEDDGEE [K174A;K175A;K176A;R177A]
MKVISLKKDSFNKGGAVITLLPEDKEDLFTVYQIVDKDDELIFKKKFTSKLDEAGKKKSTDLVKLKIKVISEDFDMKDEYLKYKGVTVTDESGASNVDIPVGKYLSFTLDYVYPFTIIKQNFNKFMQKLLNEACNIEYKSDTAAVVLQEGIAHVCLVTSSSTILKQKIEYSMPKKKRTTDVLKFDEKTEKFYKAIYSAMKKDLNFDKLKTIILCAAGAYAKILMDKIFQYAEEEHNKKILDNKGMFFIAHCSTGYLQGINEVLKNPLYASKLQDTKYSKEIMVMDEFLLHLNKDDDKAWYGEKEVVKAAEYGAISYLLLTDKVLHSDNIAQREEYLKLMDSVESNGGKALVLSTLHSLGEELDQLTGIACILKYPLPDLDEDDGEE [S215A;P216A;F218A]
MKVISLKKDSFNKGGAVITLLPEDKEDLFTVYQIVDKDDELIFKKKFTSKLDEAGKKKSTDLVKLKIKVISEDFDMKDEYLKYKGVTVTDESGASNVDIPVGKYLSFTLDYVYPFTIIKQNFNKFMQKLLNEACNIEYKSDTAAVVLQEGIAHVCLVTSSSTILKQKIEYSMPKKKRTTDVLKFDEKTEKFYKAIYSAMKKDLNFDKLKTIILCSPGFYAKILMDKIFQYAEEEHNKKILDNKGMFFIAHCSTGYLQGINEVLKNPLYASKLQDTKYSKEIMVMDEFLLHLNKDDDKAWYGEKEVVKAAEYGAISYLLLTDKVLHSDNIAQREEYLKLMDSVESNGGKALVLSTLHSLGERLDQLTGIACILKYPLPDLDEDDGEE [E361R]

Variants of: B2
Conditions: with dom34_yeast DOM34, P33309

Effect of a mutation on the interaction, disrupting interaction:
R517E
R557A;H558A
L520R
R256A;D257A;F258A

Reference: IntAct's records for PubMed 21102444
